The test has as its target SARS-CoV-2 S trimer (SARS-CoV-2, UniProt P0DTC2). As to the kind of experiment: SPR. The note with it: both partners purified.

What is called Kd is a measure of binding affinity in units of concentration. A lower Kd goes with a tighter complex. A word on the koff: it is the first-order rate constant of dissociation. A low value points to slow dissociation. The kon is the second-order rate constant of association. Low readings indicate slow association, high ones fast association.

B1: wheat germ agglutinin (natural protein)
chain: QRCGEQGSNMECPNNLCCSQYGYCGMGGDYCGKGCQNGACWTSKRCGSQAGGATCTNNQCCSQYGYCGFGAEYCGAGCQGGPCRADIKCGSQAGGKLCPNNLCCSQWGFCGLGSEFCGGGCQSGACSTDKPCGKDAGGRVCTNNYCCSKWGSCGIGPGYCGAGCQSGGCDG
Molecule B1 returned a Kd of 1.5 nM, an off-rate (koff) of 0.00482 s⁻¹ and a kon of 3.21e+06 M⁻¹ s⁻¹.
